Measured values from paper PMC12084609, “Structural insights into small-molecule agonist recognition and activation of complement receptor C3aR” (The EMBO Journal, 2025).
Substitutions are numbered along the chain they refer to. Several values for one entry are separate records, joined by “and”; a condition that tells them apart may be missing. Identical values can stand only once.

Legend:
C3aR S26^1.35A = biological target: T1, C3aR S26^1.35A (Homo sapiens, UniProt Q16581, S26A); assay: GloSensor-based cAMP assay, C3aR mutant S26A; type: cell-based; settings: for cAMP response (% Forskolin): S261.35A, single replicates
T1 construct: expressed in transfected cells; host or cells: HEK293T
T1 sequence (Q16581 1-482 S26A): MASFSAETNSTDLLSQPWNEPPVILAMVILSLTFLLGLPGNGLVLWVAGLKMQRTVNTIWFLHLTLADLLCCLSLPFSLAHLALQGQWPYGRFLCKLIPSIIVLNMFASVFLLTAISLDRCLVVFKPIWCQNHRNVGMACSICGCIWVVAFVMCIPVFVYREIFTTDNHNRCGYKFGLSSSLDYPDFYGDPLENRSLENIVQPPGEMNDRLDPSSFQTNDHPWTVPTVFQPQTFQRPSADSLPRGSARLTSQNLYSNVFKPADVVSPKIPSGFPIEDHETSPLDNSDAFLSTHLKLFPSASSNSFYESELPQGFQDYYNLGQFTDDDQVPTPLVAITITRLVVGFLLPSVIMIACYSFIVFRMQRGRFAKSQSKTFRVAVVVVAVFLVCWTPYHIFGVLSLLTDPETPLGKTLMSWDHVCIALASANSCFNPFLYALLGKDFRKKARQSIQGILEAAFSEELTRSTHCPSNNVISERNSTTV
Method: (§1) HEK293T cells were seeded on 6-well plates (NEST) and transfected with pGlosensor™-22F plasmids (Promega) and pcDNA3.1 plasmids encoding C3aR or its mutants an with N-terminal FLAG tag. After 48 h, cells were detached with Accutase solution (Sigma-Aldrich) and washed with PBS, and resuspended in assay buffer (CO2-independent medium with 0.5 mg mL^−1D-luciferin). 100,000–200,000 cells were seeded on 96-well white bottom plates (SPL) and incubated at 37 °C for 45 min followed by 45 min incubation at room temperature. After 90 min of incubation, basal luminescence signals were recorded. In total, 25 μl of test ligand with various concentrations and 1 μM Forskolin (Sigma-Aldrich) were treated to the cells and luminescence signals were measured by Tristar 2 LB 942 multimode reader (Berthold). […] Relative luminescence unit (%) was calculated with the signal of wells treated with vehicle as 0% and the signal of wells treated with 1 μM Forskolin as 100% (DiRaddo et al, [2014]). Nonlinear regression was performed using a three-parameter logistic equation.

C3aR H81^2.63A = biological target: T2, C3aR H81^2.63A (Homo sapiens, UniProt Q16581, H81A); assay: GloSensor-based cAMP assay, C3aR mutant H81A; type: cell-based; settings: for cAMP response (% Forskolin): H812.63A, single replicates
T2 construct: expressed in transfected cells; host or cells: HEK293T
T2 sequence (Q16581 1-482 H81A): T1 sequence (Q16581 1-482 S26A) with A26S, H81A
Method: as §1

C3aR I98^3.28A = biological target: T3, C3aR I98^3.28A (Homo sapiens, UniProt Q16581, I98A); assay: GloSensor-based cAMP assay, C3aR mutant I98A; type: cell-based; settings: for cAMP response (% Forskolin): I983.28A, single replicates
T3 construct: expressed in transfected cells; host or cells: HEK293T
T3 sequence (Q16581 1-482 I98A): T1 sequence (Q16581 1-482 S26A) with A26S, I98A
Method: as §1

C3aR R161A = settings: quoted by Referee #2; ref https://doi.org/10.1038/s41589-023-01339-w; cited from earlier work
[1] = Dunnett's multiple comparisons test, WT minus mutant

C3a: anaphylatoxin C3a, natural peptide ligand of C3aR (a 77-amino acid peptide), Sigma-Aldrich
Mean Diff. of pIC50, WT vs. S26A (C3aR S26^1.35A; [1]): 0.018
ΔpIC50 ± SE of Diff. (C3aR S26^1.35A; S26^1.35A relative to WT C3aR): -0.018 ± 0.007
IC50 (C3aR S26^1.35A; S26^1.35A, dose-response plot, read-out: IC50): 2.4 nM
pIC50 (Replicate) (C3aR S26^1.35A; S26^1.35A, individual replicates): 8.46 and 8.90 and 8.92 and 8.44
pIC50 ± SEM (Mean) (C3aR S26^1.35A; S26^1.35A, mean of independent experiments): 8.68
cAMP response (% Forskolin) (C3aR S26^1.35A; Log[C3a (M)] -7): 6.63 % Forskolin and 16.74 % Forskolin and 7.89 % Forskolin and 6.95 % Forskolin
cAMP response (% Forskolin) (C3aR S26^1.35A; Log[C3a (M)] -8): 10.18 % Forskolin and 21.44 % Forskolin and 11.61 % Forskolin and 10.34 % Forskolin
cAMP response (% Forskolin) (C3aR S26^1.35A; Log[C3a (M)] -9): 93.63 % Forskolin and 62.67 % Forskolin and 56.93 % Forskolin and 99.13 % Forskolin
cAMP response (% Forskolin) (C3aR S26^1.35A; Log[C3a (M)] -10): 100.97 % Forskolin and 93.52 % Forskolin and 93.48 % Forskolin and 106.03 % Forskolin
cAMP response (% Forskolin) (C3aR S26^1.35A; Log[C3a (M)] -11): 99.94 % Forskolin and 102.62 % Forskolin and 98.56 % Forskolin and 106.48 % Forskolin
cAMP response (% Forskolin) (C3aR S26^1.35A; Log[C3a (M)] -12): 101.64 % Forskolin and 96.07 % Forskolin and 97.79 % Forskolin and 99.89 % Forskolin
Mean Diff. of pIC50, WT vs. H81A (C3aR H81^2.63A; [1]): 0.390
ΔpIC50 ± SE of Diff. (C3aR H81^2.63A; H81^2.63A relative to WT C3aR): -0.39 ± 0.05
IC50 (C3aR H81^2.63A; H81^2.63A, dose-response plot, read-out: IC50): 7.45 nM
pIC50 (Replicate) (C3aR H81^2.63A; H81^2.63A, individual replicates): 8.23 and 8.03 and 8.24 and 8.26 and 7.82 and 8.16 and 8.00
pIC50 ± SEM (Mean) (C3aR H81^2.63A; H81^2.63A, mean of independent experiments): 8.11
cAMP response (% Forskolin) (C3aR H81^2.63A; Log[C3a (M)] -7): 16.97 % Forskolin and 18.16 % Forskolin and 16.81 % Forskolin and 12.45 % Forskolin and 16.49 % Forskolin and 12.75 % Forskolin and 10.89 % Forskolin
cAMP response (% Forskolin) (C3aR H81^2.63A; Log[C3a (M)] -8): 37.38 % Forskolin and 51.57 % Forskolin and 36.98 % Forskolin and 30.38 % Forskolin and 58.58 % Forskolin and 40.19 % Forskolin and 48.13 % Forskolin
cAMP response (% Forskolin) (C3aR H81^2.63A; Log[C3a (M)] -9): 95.75 % Forskolin and 95.02 % Forskolin and 98.54 % Forskolin and 105.34 % Forskolin and 92.35 % Forskolin and 92.22 % Forskolin and 94.48 % Forskolin
cAMP response (% Forskolin) (C3aR H81^2.63A; Log[C3a (M)] -10): 97.40 % Forskolin and 98.52 % Forskolin and 99.76 % Forskolin and 98.68 % Forskolin and 88.34 % Forskolin and 99.56 % Forskolin and 95.62 % Forskolin
cAMP response (% Forskolin) (C3aR H81^2.63A; Log[C3a (M)] -11): 96.99 % Forskolin and 98.64 % Forskolin and 99.98 % Forskolin and 102.79 % Forskolin and 93.58 % Forskolin and 91.17 % Forskolin and 97.12 % Forskolin
cAMP response (% Forskolin) (C3aR H81^2.63A; Log[C3a (M)] -12): 95.00 % Forskolin and 97.54 % Forskolin and 97.75 % Forskolin and 103.25 % Forskolin and 100.37 % Forskolin and 97.05 % Forskolin and 96.06 % Forskolin
Mean Diff. of pIC50, WT vs. I98A (C3aR I98^3.28A; [1]): 0.113
ΔpIC50 ± SE of Diff. (C3aR I98^3.28A; I98^3.28A relative to WT C3aR): -0.11 ± 0.02
IC50 (C3aR I98^3.28A; I98^3.28A, dose-response plot, read-out: IC50): 4.07 nM
pIC50 (Replicate) (C3aR I98^3.28A; I98^3.28A, individual replicates): 8.38 (2×) and 8.42 and 8.40 and 8.08 and 8.54 and 8.47
pIC50 ± SEM (Mean) (C3aR I98^3.28A; I98^3.28A, mean of independent experiments): 8.38 ± 0.05 and 8.38
cAMP response (% Forskolin) (C3aR I98^3.28A; Log[C3a (M)] -7): 12.31 % Forskolin and 10.90 % Forskolin and 9.84 % Forskolin and 8.89 % Forskolin and 11.38 % Forskolin and 5.37 % Forskolin and 7.43 % Forskolin
cAMP response (% Forskolin) (C3aR I98^3.28A; Log[C3a (M)] -8): 27.29 % Forskolin and 21.82 % Forskolin and 20.14 % Forskolin and 14.26 % Forskolin and 42.67 % Forskolin and 12.53 % Forskolin and 15.24 % Forskolin
cAMP response (% Forskolin) (C3aR I98^3.28A; Log[C3a (M)] -9): 88.79 % Forskolin and 95.53 % Forskolin and 90.20 % Forskolin and 95.03 % Forskolin and 96.77 % Forskolin and 78.73 % Forskolin and 85.71 % Forskolin
cAMP response (% Forskolin) (C3aR I98^3.28A; Log[C3a (M)] -10): 99.83 % Forskolin and 101.03 % Forskolin and 99.65 % Forskolin and 94.56 % Forskolin and 95.76 % Forskolin and 97.03 % Forskolin and 93.13 % Forskolin
cAMP response (% Forskolin) (C3aR I98^3.28A; Log[C3a (M)] -11): 97.32 % Forskolin and 101.48 % Forskolin and 99.97 % Forskolin and 96.12 % Forskolin and 97.86 % Forskolin and 93.68 % Forskolin and 92.51 % Forskolin
cAMP response (% Forskolin) (C3aR I98^3.28A; Log[C3a (M)] -12): 95.26 % Forskolin and 98.35 % Forskolin and 96.71 % Forskolin and 98.06 % Forskolin and 93.96 % Forskolin and 97.55 % Forskolin and 101.79 % Forskolin
decrease of potency toward C3aR by R161A (C3aR R161A): ~ 1000 fold
